From patent US20250027068 come the findings set out here.

Positions count from the first letter of the chain named.

Sequences and labels used below:
B1: PRT-22 (protein)
chain: MANQEIRYSEVTPYHVTSVWTKGVTPPANFTQGEDVFHAPYVANQGWYDITKTFNGKDDLLCGAATAGNMLHWWFDQNKDQIERYLKEHPEKQKINFNGEQMFDVKEAIDTKNSQLDSKLFEYFKEKAFPYLSTKHLGVFPDHVIDMFINGYRLSLTNHGPTPVKEGSKDPRGGIFDAVFTRGDQSKLLTSRHDFKEKNLKEISDLIKKELTEGKALGLSHTYANVRINHVINLWGADFDSNGNLKAIYVTDSDSNASIGMKKYFVGVNSAGKVAISAKEIKEDNIGAQVLGLFTLSTGQDIWNQTN
B2: Ide85 (protein)
chain: MANQEIRYSEVTPYHVTSVWTKGVTPPAKFTQGEDVFHAPYVANQGWYDITKTFNGKDDLLCGAATAGNMLHWWFDQNKEKIEAYLKKHPDKQKIMFGDQELLDVRKVINTKGDQTNSELFNYFRDKAFPGLSARRIGVMPDLVLDMFINGYYLNVYKTQTTDVNRTYQEKDRRGGIFDAVFTRGDQSKLLTSRHDFKEKNLKEISDLIKKELTEGKALGLSHTYANVRINHVINLWGADFDSNGNLKAIYVTDSDSNASIGMKKYFVGVNSAGKVAISAKEIKEDNIGAQVLGLFTLSTGQDSWNQTN
B3: PRT-240 (protein)
chain: MEVVEVWPYGQNPNGKTEILSQTEDSESLQRLRDIEDFQAEKKMQNVVYTKWLDGVDVKDHDFRKIVDGDYAYYATPLLNGRGFYDINKDFNRDSDKCAAAVAANMFHYWLDINRDNVDRFLRQNPEKHGIIELPDGQLKLSDFLNTYESDHGYRDKSKLFDFISNAFNGPVWADKLLDNYINGYGYNKKYGRTIEDPTKNTSKFNFFKEVFNEKILTNNHQIRNQNEFSVLLSEALYTGKAIGLAYGPGGLRHSLGHIISVWGADLDADGNVVAIYVTDSDDKKLTIGDERVGLKRYKISTDDNNRLRLTTYEETHNTGAQIRGLETLDTGKYAWADYFDKTEQTGTDQAEQLEHHHHHH
B4: PRT-229 (protein)
chain: MEVVEVWPYGQNPNGKTEILSQTEDSESLQRLRDIEDFQAEKKKQNVVYTKWLDGVDVKDHDFRKIVDGNIAYYATPLLNGRGFYDINKDFNRDSDKCAAAVAANMFHYWLDINRDNVDRFLRQNPEKHGIIELPDGQLKLSDFLNTYESDHGYRDKSKLFDFISNNFNGPVWTDKLLDNYINGYAYNYKYGRTIEDPTKNTSKINFFKEVFNEKILTNNHSIRNQNEFSVLLSEALYTGKAIGLSYGPAGLRHSLGHIISVWGADLDADGNVVAIYVTDSDDKKLTIGDERVGLKRYKISTDDENRLRLTAYEETHNTGGQIRGLWTLDTGKYAWADYFDKTEQTGTDQAEQLEHHHHHH
B5: PRT-232 (protein)
chain: B4 chain with K44M, Y334E
B6: PRT-235 (protein)
chain: B4 chain with K44M, H317D
B7: PRT-236 (protein)
chain: B4 chain with K44M, K59D
B8: PRT-231 (protein)
chain: B4 chain with K44M, L308A
B9: PRT-230 (protein)
chain: B4 chain with K44M, H152N
B10: PRT-234 (protein)
chain: B4 chain with K44M, H152D
B11: PRT-237 (protein)
chain: B4 chain with K44M, A72E
B12: PRT-238 (protein)
chain: B4 chain with K44M, N70G, K97L, F163Y, A186G
B13: PRT-233 (protein)
chain: B4 chain with K44M, I113R
B14: PRT-239 (protein)
chain: MEVVEVWPYGQNPNGKTEILSQTEDSESLQRLRDIEDFQAEKKMQNVVYTKWLDGVDVKDHDFRKIVDGGTAYYATPLLNGRGFYDINKDFNRDSLLCSAAVAANMFHYWLDINRDNVDRFLRQNPEKHGIIELPDGQLKLSDFLNTYESDHGYRDKSKLFDYISNNFNGGLWTDKLLDNYINGYGYNKKYGRTIEDPTKNTSKINFFKEVFNEKILTNNHQIRNQNEFSVLLSEALYTGKAIGLSYGPAGLRHSLGHIISVWGADLDADGNVVAIYVTDSDDKKLTIGDERVGLKRYKISTDDNNRLRLTAYEETHNTGGQIRGLWTLDTGKYAWADYFDKTEQTGTDQAEQLEHHHHHH

The data set has as its target pooled human IgG.
Protein B1 had an Enzyme Activity Endpoint Assay: Fab′2 of 37 ng/µL, an Enzyme Activity Endpoint Assay: Fc of 116 ng/µL, an Enzyme Activity Endpoint Assay: IgG of 19 ng/µL and an Enzyme Activity Endpoint Assay: scIgG of 23 ng/µL.

For B2, the Enzyme Activity Endpoint Assay (purified): Fab'2 amounted to 1130 ng/µL, the Enzyme Activity Endpoint Assay (purified): Fc is 615 ng/µL, the Enzyme Activity Endpoint Assay (purified): IgG was 0 ng/µL and the Enzyme Activity Endpoint Assay (purified): scIgG worked out at 0 ng/µL.

In turn, B3 came in with an Enzyme Activity Endpoint Assay (purified): Fab'2 of 0 ng/µL, an Enzyme Activity Endpoint Assay (purified): Fc of 82 ng/µL, an Enzyme Activity Endpoint Assay (purified): IgG of 1400 ng/µL and an Enzyme Activity Endpoint Assay (purified): scIgG of 36 ng/µL.

Turning to B4, the Enzyme Activity Endpoint Assay (purified): Fab'2 stood at 691 ng/µL, the Enzyme Activity Endpoint Assay (purified): Fc came to 243 ng/µL, the Enzyme Activity Endpoint Assay (purified): IgG came out at 1270 ng/µL and the Enzyme Activity Endpoint Assay (purified): scIgG was 294 ng/µL.

As to B5, the Enzyme Activity Endpoint Assay (purified): Fab'2 turned out to be 40 ng/µL, the Enzyme Activity Endpoint Assay (purified): Fc was 283 ng/µL, the Enzyme Activity Endpoint Assay (purified): IgG came out at 624 ng/µL and the Enzyme Activity Endpoint Assay (purified): scIgG turned out to be 393 ng/µL.

For B6, the Enzyme Activity Endpoint Assay (purified): Fab'2 is 116 ng/µL, the Enzyme Activity Endpoint Assay (purified): Fc amounted to 448 ng/µL, the Enzyme Activity Endpoint Assay (purified): IgG was found to be 711 ng/µL and the Enzyme Activity Endpoint Assay (purified): scIgG is 483 ng/µL.

Turning to B7, the Enzyme Activity Endpoint Assay (purified): Fab'2 was determined as 294 ng/µL, the Enzyme Activity Endpoint Assay (purified): Fc amounted to 615 ng/µL, the Enzyme Activity Endpoint Assay (purified): IgG worked out at 594 ng/µL and the Enzyme Activity Endpoint Assay (purified): scIgG was 472 ng/µL.

In the case of B8, the Enzyme Activity Endpoint Assay (purified): Fab'2 is 176 ng/µL, the Enzyme Activity Endpoint Assay (purified): Fc was determined as 388 ng/µL, the Enzyme Activity Endpoint Assay (purified): IgG was 465 ng/µL and the Enzyme Activity Endpoint Assay (purified): scIgG is 313 ng/µL.

Turning to B9, the Enzyme Activity Endpoint Assay (purified): Fab'2 worked out at 699 ng/µL, the Enzyme Activity Endpoint Assay (purified): Fc stood at 454 ng/µL, the Enzyme Activity Endpoint Assay (purified): IgG was found to be 513 ng/µL and the Enzyme Activity Endpoint Assay (purified): scIgG worked out at 396 ng/µL.

As for B10, the Enzyme Activity Endpoint Assay (purified): Fab'2 worked out at 88 ng/µL, the Enzyme Activity Endpoint Assay (purified): Fc was 376 ng/µL, the Enzyme Activity Endpoint Assay (purified): IgG came to 640 ng/µL and the Enzyme Activity Endpoint Assay (purified): scIgG amounted to 432 ng/µL.

Protein B11 returned an Enzyme Activity Endpoint Assay (purified): Fab'2 of 828 ng/µL, an Enzyme Activity Endpoint Assay (purified): Fc of 415 ng/µL, an Enzyme Activity Endpoint Assay (purified): IgG of 685 ng/µL and an Enzyme Activity Endpoint Assay (purified): scIgG of 461 ng/µL.

B12 displayed an Enzyme Activity Endpoint Assay (purified): Fab'2 of 0 ng/µL, an Enzyme Activity Endpoint Assay (purified): Fc of 81 ng/µL, an Enzyme Activity Endpoint Assay (purified): IgG of 1610 ng/µL and an Enzyme Activity Endpoint Assay (purified): scIgG of 28 ng/µL.

In turn, B13 displayed an Enzyme Activity Endpoint Assay (purified): Fab'2 of 94 ng/µL, an Enzyme Activity Endpoint Assay (purified): Fc of 376 ng/µL, an Enzyme Activity Endpoint Assay (purified): IgG of 596 ng/µL and an Enzyme Activity Endpoint Assay (purified): scIgG of 415 ng/µL.

On to B14, for which the Enzyme Activity Endpoint Assay (purified): Fab'2 amounted to 49 ng/µL, the Enzyme Activity Endpoint Assay (purified): Fc stood at 269 ng/µL, the Enzyme Activity Endpoint Assay (purified): IgG amounted to 689 ng/µL and the Enzyme Activity Endpoint Assay (purified): scIgG worked out at 360 ng/µL.
